Biological target: the molecule itself
Experiment: mass photometry

B1: Irgb6-WT (wild-type Irgb6) (enzyme, mouse)
chain: MAWASSFDAFFKNFKRESKIISEYDITLIMTYIEENKLQKAVSVIEKVLRDIESAPLHIAVTGETGAGKSTFINTLRGVGHEEKGAAPTGAIETTMKRTPYPHPKLPNVTIWDLPGIGTTNFTPQNYLTEMKFGEYDFFIIISATRFKENDAQLAKAIAQMGMNFYFVRTKIDSDLDNEQKFKPKSFNKEEVLKNIKDYCSNHLQESLDSEPPVFLVSNVDISKYDFPKLETKLLQDLPAHKRHVFSLSLQSLTEATINYKRDSLKQKVFLEAMKAGALATIPLGGMISDILENLDETFNLYRSYFGLDDASLENIAQDLNMSVDDFKVHLRFPHLFAEHNDESLEDKLFKYIKHISSVTGGPVAAVTYYRMAYYLQNLFLDTAANDAIALLNSKALFEKKVGPYISEPPEYWEA
- stoichiometry N: 2
